# Experimental data taken from the DeepSol protein solubility set.
# Test: soluble on expression in E. coli; label from the status in PepcDB or PDB records
row,Sequence,soluble on expression in E. coli
1,MGSDKIHHHHHHMIKICSVAFLSLLLSASSLFAQTKTFAGADYSQGIVFVMENNQMVWKHKAPDSNDLWILPNGNILFTTGHGVLEMTRQNDTIFHYESKSPVFACQRLKNGNTFVGECVTGRMLEISPKGKIVKETCILPKGVKDGGFAFMRNARRLDNGHFLVAHYGDQCVKEYDANGKVVWKLDVPGGPHSLTRLPNGHTLIAVADKDQNPRLIEVTPEGKTIWEISNADIPGKPLKFLGGFQYFSDGRFLITNWTGHVNPKEKVHLLLVDRQKNVLYSLENTPELQTMSSVYSTDKPAGVASYH,not soluble
2,MGSDKIHHHHHHMTSPRIISIEGPMGAGKTSLARQLAQSLGGRMILEAPAQNPFLSRFYQGPGAALATELQFFMQRREQWRHRDDSSWLISDHSARKDEIFTPLTLDAEEHHLFNELRMALDFHPAPADLMIFLDAPLAVLMKRIRARGDAYEQALAPDYLARVQAAYRAWQANYALPRMNVDSAQVDFVHDPRHTERLIDAVRHRLKDAEEQDA,not soluble
3,NKMPVIEVQGIVPTEIIVSPRYYRMGFVGGDLSVPVGQFVFRGEAAFNIDKHFTYKSHAEQEGFQTINWLAGADWYAPGEWMISGQFSMESIFRYRDFISQRQHSTLITLNVSKKFFGSTLQLSDFTYYDLTGKGWFSRFAADYALNDQIHLMAGYDWFSSKGSGIFDRYKDNSELWFKARYSF,not soluble
4,MGLLLYRELVHKLKTKYKKIAGKGENQKDKTLPWHLETDQLTNRHPNHKVRIPYIDEVFDMLAKMTAKNQLTLPKSVTTAVGAGEYFEIEVRNGQIVLTPVRIQRADAVRAKLAELDLGERDIMDAVTWARQPVKGSATE,not soluble
5,MSRDIDYGNLMHTAMRGLIKTVLADVAQHGLPGAHHFFITFDTRYEGVQLADWLADRYPGEMTIVMQHWYENLDVGEDGFAITLNFGDSPEPLYIPYDAIRTFVDPSVEFGLRFESPDFDEDDEDDIEVEEEPDAPKPDAEVVSLDSFRKPLEHHHHHH,soluble
6,MGSDKIHHHHHHLKKQAVVIGAGLAGMSAAIRLAGDGYEVTMLEQNGNVGGKLNQRSGQGFTFDTGPSILTMPWVLEQLFTSVHRRLDDYLEIERIEPQWRTFFEDGTQLDVKGDLPGMLEEFKKVSDQADFVELFSYSKKMYDLCLDSFYKYSLEDLKDLKKYHTMSELLKMDPLNTVASGTKKHLNNKYLEQLFNYMVMYVGSNPYEAPAVFNQMIYVQMGLGIYYVKGGMYNIARAMKTVLDELRVTIHVNTPVARVVTEGKRAIGVETTDGTFYPADVVVSNLEVIPTYQHLISEKKGPKQAKKLNQSFVPSVSGLVLLLGVNREYKDLKHHNFFFSDDPEREFAQMFKDGVPPEDPTIYVGVSSKSDASQAPEGKDNLFVLTHVPPLTKQDGKTDWDAYREVVLDKLERMGLTDLRESIEFEYRFTPEDLKSLYGPNGGSIYGVAADRKKNGGFKIPSKSDLYEGLYFVGGSTHPGGGVPMVTLSGQLTADLIQKHEKVKA,not soluble
7,MFEGGHSKSFSIFPIRVVYMPVEQGEVPATILISVSKRRFKRAVKRNRVKRQIREVYRKNKQPLLDGLQNKGQRLAIAFIYLSDELVATAELEEKMKTALSRISEKLSL,not soluble
8,MAADYDKLFRPHEGMEAPDDMAAQPFFDPSASFPPAPASANLPKPNGQTPPPTSDDLSERFVSAPPPPPPPPPPPPPTPMPIAAGEPPSPEPAASKPPTPPMPIAGPEPAPPKPPTPPMPIAGPEPAPPKPPTPPMPIAGPAPTPTESQLAPPRPPTPQTPTGAPQQPESPAPHVPSHGPHQPRRTAPAPPWAKMPIGEPPPAPSRPSASPAEPPTRPAPQHSRRARRGHRYRTDTERNVGKVATGPSIQARLRAEEASGAQLAPGTEPSPAPLGQPRSYLAPPTRPAPTEPPPSPSPQRNSGRRAERRVHPDLAAQHAAAQPDSITAATTGGRRRKRAAPDLDATQKSLRPAAKGPKVKKVKPQKPKATKPPKVVSQRGWRHWVHALTRINLGLSPDEKYELDLHARVRRNPRGSYQIAVVGLKGGAGKTTLTAALGSTLAQVRADRILALDADPGAGNLADRVGRQSGATIADVLAEKELSHYNDIRAHTSVNAVNLEVLPAPEYSSAQRALSDADWHFIADPASRFYNLVLADCGAGFFDPLTRGVLSTVSGVVVVASVSIDGAQQASVALDWLRNNGYQDLASRACVVINHIMPGEPNVAVKDLVRHFEQQVQPGRVVVMPWDRHIAAGTEISLDLLDPIYKRKVLELAAALSDDFERAGRR,soluble
9,MGSDKIHHHHHHQIAPAPSTGYNCDLALYSVPQANLLARSLQGDTVADQQYRQLVRELAMELRNCRQQVWPRKMAIWVRLYSCDLRPGGLDSLFDGLQALGYNEVFIETFYDGRVLLPAADNPTVWPSVVAEPGLERVDLLAEAIRKGRERGMSVYAWLFTLNYGYSYSQRSDRQDTLARNGRSESSLEIVSGGAQVFVDPFNPVARQDYQTLLRSVLSRRPDGVLFDYVRYPRGTGAASVMTKVADLLIHTTAARQAWINQLNTPAGQALLTEYLDTGRLSPSDRNQLVLLLGDRLKELNLRQDVDPLWSLAVYHAWRGVVEFVDEAVGTVAQAGLPSGAVFFPFGNARVGQQGWDSRMQPWDRFPNSMEYHPMSYALCGDRHDCVMAEVQRVLEAKPNSIVQPAIAGTWGANFNAHLPLEQRMAALRSTFGDRIDRVSHFSLAWMDPQGERQRQRCRL,not soluble
10,MTKLEVCCYSVDCAQIAEKAGADRVELCCGQSEGGVTPSVGALMQARETVTIPVHPIVRPRGGDFCYSSNDFTIMKNDIARIRDLGFAGVVVGVLDTDGHIDMPRMREIMSVSGSLAVTFHRAFDMCQNPMIALKQLAELNVARILTSGQQQNAELGLALLKDLVAATKDQGPIIMAGAGVRLTNMQKFIDAGIRELHSSAGRTVPSTMRYRKAGVTMCADSDVDEFSHYCVDGEVVEAMKSLLVMGSPLAKHT,soluble
11,ANKLDSKKLTRSNGTTLEYSQITDADNATKAVETLKNSIKLEGSLVVGKTTVEIKEGTVTLKREIEKDGKVKVFLNDTAGSNKKTGKWEDSTSTLTISADSKKTKDLVFLTDGTITVQQYNTAGTSLEGSASEIKNLSELKNALK,soluble
12,MNNPVVLDSKTELNEQTAQDVRLQLRQDADVQRIYNAVDIKDQLELIELGKEPSMEISRFADQILHTMSLSKIEDSGELLKQLGKIMDRFDSKDFAEEKSGFFSRMFKKADKMIEQIFSKYQTMGREIDKVYVEITKYQDEMKKSIGTLDGLYEQNLKYYLDLEKYVVAGEMLLERLNTELVPMYEERVRNNDQLAGIELESLKNSVEILEQRIDDLEKARMVALLTAPQIRMIQRGNNKLIGKINTAFITTIPIFKNGIIQAVNAKRQKLVADSMAELDRRTNELLKKNAQNIATQSVEVARLSGSSSIKMETLEETWNIISRGMQETQQIEEQNKREREESRKRMATLTENIKKELQG,not soluble
13,MGSDKIHHHHHHMVILLNPNILESSFIPERLRARDSEISKIMEVVIKPALNNITTNLIIYGDSGTGKTVTMRFLAREVRNPKIFYINAISYRSVKNVLVELLSHEGVIISERASYANIYTRLEKAIEKYDKTVILVIDEAANILRTDEEGLYYLFRSKDSFDVNISAIFIAMDDPALLLNQRIKRSYGLFNELKFKRYSKDEILEIVRDRARMSLNTTSYDDTIIDYIAEISSEFGSARVAIDILAKAAHIAEYRRSENISYDDVRAAKSMISPYVTESKLASLDKYELAALLAICGCLSHSVSTDIACVSEQLKILREQYSLDPEMDIYEILRKLEGLGIINSYVESSGKSSGVRKKISIHDVPVSVLAEKIGNLLNGMA,not soluble
14,MSLSNDIELTIDIELQSYLTSLFEGNAGAAIIMNVNDGSILAAGSFPEYDLNPFVTGISFKDWDELSNSLDHPFTNKLINGYYPPGSVVKMGVGLSFLNSKNISPSTHYVCNGSIELGGRFFRCWNRSGHGPVDLKHAIKYSCDVYFYNGSLQVGIDQISETLSRIGFGVKTGVDLPSEFVGTLPSKEWKMQRYRQSWFQGDTLNTAIGQGNFLATPMQIARYTAQIAKSGEVIPHFLKSIENNNTTIENQMDENKKEIFTLFEKSQLPYIRDAMYAVANEQGGTSYRYLHNLDVKVAAKTGTAQVVGFSQTDKNRVDEKQFEYYTRSHAWLTSYAPYSKPKYVVTVLLEHGGRNITSGATVAKIYQKMIELGYFKEGHHHHHH,not soluble
15,MGSDKIHHHHHHAGCEEEASLSARSVVEAGETEREKTELDKWILDTFTRPYGIEVEYRWDKNAVQNGSYIYPPEVANVKSVLNTIKTLWIDLYTAPELGGDKFLLGKNPLKIYMYGGRNVDGNGMELLDNLEATTNEMFLYNVNDFNPQDEDKVFILMRSVHHQFARHLMELFPYDRSKFLSISRNKYIESTKSIAWIFKGETQGRRGFILAGYPNKKGFFTFHSLLSPEKDFAEIISLKLTYGPKDLLQALDRAKTPYNAGSDKDLQKEYDEQALQAYKELVEKQAFVEDYFSKEIKISLNYLQLISMKQVKEFINKK,not soluble
16,MAEQRSNIMRLPPSGYRLHRFPPLAQPVAVDEEFGLDNQGWQESQVDIQQQLEAGFQQGLQQGHEEGLRQGIEQGKQQGLLDGQKEGFQKGFVSGEQAGKQGFLEAAKPVNDLFQALSRWQSEKEQQQRHMICELVQKVAQQVIRAELTLMPQQILALVDETLSAMPGKAETVTVHLNPQDLERITHINADLPKSWKLVANNELPIGGCQLVTDDAEADASCDSRLEACMDNVKQHLLDEVSIPQVESENELEHHHHHH,soluble
17,MKLKELVKQFIPMNYWNTRRKASIIRQQGKVADFWAPILKAYYNGEIERYSLKPKKKLGTQKVIWQYWGQGIDKDELPEIIQICFDSVDRNKNDYQVIRLTDITISEYIDLPDFVWRKREYVQFTRTFFSDLLRVALLSTYGGVWLDATILLTGSIPAVYEKTDFFMYQRSDEEKNKKYWENVYAYYFGWEPNFKVRMLSSILFAQKESEIISTLTDLLLYFWKTQDSLPDYFCFQILFNELVANYRPAENCPIVNDCIPHIIQTKINGTYDDVSFEEALELSNIHKMTYFDAAAMIRLKMVLRLARNALEHHHHHH,soluble
18,MSLKLYYMPAACSLSPHIVANELELDIEFVRVNFKDHKTEGGQDYYDINPNGYIPALDVGNGAMLFEGPAIVQYMADLKPQSGLAPANGTFERYKLQEMLSFLSTEIHKGFIPLLYAKQAGAYLETATPKLEKRYAWIDNLLASQRFLMGENFTVADAYLFALTSWGQASWLKSYYGADIHFDDLLNLRGWYERVKERDAVKQSILEEGLSLSEGHHHHHH,soluble
19,AIADTGELHDLTVKGAVVTQLERCEVACQRLFQNLALLGLELQNSESITEGVCDSKAASDLGSSVELLENEERALRLCVDRFVLELRQVENLAKTLDGIREEEERILSLEQRSIEQAERCFYLWNDAREMLRGTRLTSIKEVLESAARYPRIPSWTPLPTSN,soluble
20,MQPKVTVAQAAELMGVSDRTIRKKIEEGEITAEPAQSAKGKGRPGYLIPVSSLPVDAQRKYWTTSEVAAASEIGEAEPDKPETTGIPYTLAELEHAVGKEKFQEMMAEAEYRLQIVEQAMNPPQGVERTIWINRLAKKYGKSTATIYRDIEKFQEWGILGLMRKSRLLTQGPQRTSIEPEVERFIRAKYLDRRKPKPAHIFRETVRFCATNGYKAPSRASVFRYISDMERYEPDLCCLAREGEEAYWKKFAEKATRKEPEFVNQVWMGDHHKLDMFISYKGKPVRPWLTVWFDVCSRVVVGWCLSVQANGRTIALALRHALLPKKIKRDDGTEDVLEIGGIPGMIYIDNGEDYKAQVRAGKKHEDWELSRETRGICASLDIKVQFATPYHPWAKAHVERFFGTFTDQFTRYQPGWCGPNNEDRPEGFDEKELHEKGLLLDLEELSERIDTWLYEYHTTEHRSLGMTPMQKHFSTPKIREGFADERALDICLMDVERAAVTPNGIERFGTRGRKRWYWHPELPAYAGQKVIIRYDPNRIGELLVFHPKTGKYLFTATNKELLDFNATKDDIQELQKRRASRRKAVKEMVRNAQQASLENIVAEREAAGSRMTSGKAGSTKGKVRAMIGTEQVVRQREEQANLAKTKRPTKTTSAFDDYILREGTEG,not soluble
